Data on four molecules can be found in paper PMC4535883, “A Single-Strand Annealing Protein Clamps DNA to Detect and Secure Homology”.

The target of data set [1] is T1, Redβ (single-strand annealing protein) (bacteriophage lambda, UniProt P03698 1-261).
T1 sequence: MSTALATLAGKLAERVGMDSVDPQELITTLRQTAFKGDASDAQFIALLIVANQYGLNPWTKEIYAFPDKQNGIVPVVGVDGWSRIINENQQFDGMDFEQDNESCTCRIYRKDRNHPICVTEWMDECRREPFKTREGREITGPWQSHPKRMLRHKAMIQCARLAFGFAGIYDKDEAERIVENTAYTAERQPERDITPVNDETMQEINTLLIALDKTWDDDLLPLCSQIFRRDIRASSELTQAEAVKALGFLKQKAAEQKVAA
As to the kind of experiment: CD; filament formed by Redβ annealing; CD shift at 210-220 nm; Buffer composition not in the material; optical tweezers at 29.2 °C. As to conditions: protein: recombinant; tags: StrepII (stated for the purified protein used as western blot standard); blunt; strands annealed by Redβ.

Data set [2] addresses T1, Redβ (single-strand annealing protein). Description: optical tweezers; preassembled filament, 750 nM Redβ; >20% of traces >100 pN; Buffer composition not in the material; optical tweezers at 29.2 °C. Particulars: protein: recombinant; tags: StrepII (stated for the purified protein used as western blot standard); 25 bp duplex, ssDNA spacers on both sides.
The target is the same in data set [3]. Description: FCS/FCCS; effective KEpstein for 30-b ssDNA, calculated as Kd/21; Buffer composition not in the material; optical tweezers at 29.2 °C. As to conditions: protein: recombinant; tags: StrepII (stated for the purified protein used as western blot standard); label: Atto 655 (5').
The target is the same in data set [4]. Description: FCCS; half of ssDNA bound; about 30% bound at 100 nM; Hill coefficient close to 1; Buffer composition not in the material; optical tweezers at 29.2 °C. As to conditions: protein: recombinant; tags: StrepII (stated for the purified protein used as western blot standard); label: Atto 655 (5'). (Immunoblotting shows a protein as a band on a membrane.)

The target is the same in data set [5]. Description: FCS/FCCS; per single binding site of Redβ monomer; global fit of isodesmic growth model; Buffer composition not in the material; optical tweezers at 29.2 °C. Particulars: protein: recombinant; tags: StrepII (stated for the purified protein used as western blot standard); label: Atto 655 (5').
For data set [6] the target is unchanged. Description: optical tweezers; preassembled filament; unzipping forces >200 pN, step 10 ± 2 bp; Buffer composition not in the material; optical tweezers at 29.2 °C. As to conditions: protein: recombinant; tags: StrepII (stated for the purified protein used as western blot standard); 123 bp duplex, ssDNA spacers on both sides.

B1: CD 44-mer pair ssDNACD(1)+(2) (dsDNA)
DNA 1: GTAGAGTATAAGCACAGAGAGGATAGAGAACAATGGAGCGGGTGT
DNA 2: ACACCCGCTCCATTGTTCTCTATCCTCTCTGTGCTTATACTCTAC
In the case of B1, the binding result in data set [1] is “binds”.

B2: 25 bp high-force unzipping linker (dsDNA)
DNA 1: TGTTTAGTATGAGTCGAAATTCTTACGGCGTGTCAGAGAGGC
DNA 2: TGACAGGAAACAGCACGCCAGCCTCTCTGACACGCCGTAAGAATTCGATAGGCAGCAGATTCTCTTTTCACCTTC
modifications: 5' phosphate on overhang A
Turning to B2, the binding result in data set [2] is recorded as “binds”.

B3: ssDNA FCS 30 b (ssDNA)
DNA: ATGCCTCTCACTCGTCATCTTGTTTAGTAT
One may read the Kd as the concentration at which binding is half-saturated. Regarding B3, the results for the Kd in data set [3] and in data set [5] were around 240 nM and 5000 ± 200 nM, respectively. In addition, the “apparent K (half saturation)” value in data set [4] is around 300 nM.

B4: 123 bp high-force unzipping linker (dsDNA)
DNA 1: TGTTTAGTATGAGTCGAAATTCTTACGGCGTGTCAGAGAGGCAATGGCTTGACTTGTGGTGGATCACAGTTTGTGAGTAACGGCAAGATGCGGTAAACACTGTAATGCGAGCTTCATTGACTCGGCTTAAAGTTCCTGGT
DNA 2: TGACAGGAAACAGCACGCCAACCAGGAACTTTAAGCCGAGTCAATGAAGCTCGCATTACAGTGTTTACCGCATCTTGCCGTTACTCACAAACTGTGATCCACCACAAGTCAAGCCATTGCCTCTCTGACACGCCGTAAGAATTCGATAGGCAGCAGATTCTCTTTTCACCTTC
modifications: 5' phosphate on overhang A
In the case of B4, the binding result in data set [6] was “binds”.
